B1: CPEB3 Ribozyme (parent)
chain: GGGGGCCACAGCAGAAGCGUUCACGUCGCGGCCCCUGUCAGAUUCUGGUGAAUCUGCGAAUUCUGCUGU

Variants of: B1
Test: self-cleavage, relative activity (ratio to wild type); higher = more cleavage; co-transcriptional

| Variant | self-cleavage |
| --- | --- |
| U43A U44C | 0.987 |
| U43A U44A | 0.888 |
| U43A U44G | 0.957 |
| U44C U69A | 0.927 |
| U44C U69C | 1.07 |
| U44C U69G | 1.02 |
| U44A U67C | 0.973 |
| U44A U67A | 0.936 |
| U44A U67G | 0.984 |
| A42U C57U | 0.436 |
| U43G A51C | 0.941 |
| U43G A51U | 0.934 |
| U43G A51G | 0.901 |
| U44C G48A | 1.02 |
| U44C G48C | 1 |
| U44C G48U | 1.02 |
| U43G C66U | 0.794 |
| U43G C66A | 0.319 |
| U44C C63U | 0.819 |
| U44C C63G | 0.417 |
| U43G C54G | 0.318 |
| U43G C54A | 0.432 |
| A42U G56A | 0.799 |
| A42U G56U | 0.517 |

| Variant | self-cleavage |
| --- | --- |
| U43A G47C | 0.954 |
| U43A G47U | 0.987 |
| U43A G47A | 0.972 |
| U43C U64C | 0.671 |
| U43C U64G | 0.825 |
| U43C U64A | 0.713 |
| U44A C54G | 0.461 |
| U44A C54A | 0.588 |
| U43C U53A | 0.92 |
| A42U U62A | 0.809 |
| A42U U62C | 0.721 |
| A42U U62G | 0.738 |
| U44C C45U | 0.955 |
| U44C C45A | 0.998 |
| U43G G47C | 0.936 |
| U44A G65U | 0.588 |
| U44A G65C | 0.422 |
| U44A G65A | 0.755 |
| A42U U55G | 0.276 |
| A42U U55A | 0.485 |
| U43A U64C | 0.649 |
| U43A U64A | 0.591 |
| U43C U44A | 1.02 |
| U43C U44C | 0.937 |

| Variant | self-cleavage |
| --- | --- |
| U43A G65A | 0.49 |
| U43A G65C | 0.349 |
| U43A G65U | 0.392 |
| U44G G48C | 0.965 |
| A42U G58A | 0.923 |
| A42U G58C | 0.97 |
| U43C G47A | 1.02 |
| U43C G47C | 1.01 |
| U44A G50U | 0.984 |
| U44A G50C | 1 |
| U44A A60C | 0.423 |
| U44A A60U | 0.353 |
| U43G U61C | 0.332 |
| U44A G48A | 0.953 |
| U43G C63G | 0.446 |
| U43C U49C | 0.984 |
| U43A A52U | 0.926 |
| U43C A60U | 0.415 |
| U43C A60C | 0.227 |
| U43C A60G | 0.798 |
| U43A U69A | 0.974 |
| U43A U69G | 1.01 |
| U44A C45U | 0.965 |
| U44A C45G | 0.983 |

| Variant | self-cleavage |
| --- | --- |
| U43C C66U | 0.89 |
| U43C C66G | 0.806 |
| U44A U49A | 1.02 |
| U44A U49G | 0.993 |
| U43A A51U | 0.939 |
| U43A A51G | 0.928 |
| U43C G56C | 0.494 |
| U43C G56A | 0.861 |
| U44A G58C | 1.01 |
| A42U U61A | 0.744 |
| A42U U61G | 0.448 |
| U44A C63A | 0.731 |
| A42U C63U | 0.876 |
| U43G A52U | 0.992 |
| U43G A52C | 0.962 |
| U43G A52G | 0.911 |
| U43G C45G | 0.907 |
| U43G C45A | 0.886 |
| U44C G50U | 0.93 |
| U44C G50C | 0.948 |
| A42U U64G | 0.722 |
| A42U U64A | 0.726 |
| U43G U67C | 0.915 |
| U43G U67G | 0.867 |

| Variant | self-cleavage |
| --- | --- |
| U43G U67A | 0.79 |
| A42U C66A | 0.461 |
| A42U C66U | 0.876 |
| U43G U44A | 0.971 |
| U43G U44C | 0.936 |
| U43C U62A | 0.769 |
| U43C U62C | 0.86 |
| U44C C57U | 0.419 |
| U44C C57G | 0.362 |
| U44C C57A | 0.301 |
| U44A A51U | 0.998 |
| U43G U69G | 0.97 |
| U43A C57A | 0.271 |
| U43A C57U | 0.41 |
| U44C U55A | 0.524 |
| U44C U55C | 0.473 |
| U44A U64G | 0.8 |
| U44A U64A | 0.843 |
| U44A G68A | 0.964 |
| U44A G68U | 0.981 |
| U44A G68C | 1.01 |
| U44A U62G | 0.685 |
| U44A U62C | 0.774 |
| U43G U64A | 0.506 |

| Variant | self-cleavage |
| --- | --- |
| U43G U64C | 0.409 |
| U43A A60U | 0.29 |
| U43A A60G | 0.683 |
| U44G C45A | 0.932 |
| U44C U62C | 0.572 |
| U44C U62G | 0.664 |
| U44G C54G | 0.417 |
| U44G C54U | 0.87 |
| A42U G50U | 0.937 |
| A42U G50C | 0.809 |
| U43A C63G | 0.45 |
| U43A C63A | 0.504 |
| U44C A52C | 0.95 |
| U44C A52G | 1.01 |
| U44C A52U | 1 |
| U43C U69A | 1.01 |
| A42U U43A | 0.914 |
| U43G C57A | 0.293 |
| U43G U46C | 0.677 |
| U43G U46G | 0.915 |
| U43C C57G | 0.308 |
| U43C C57A | 0.298 |
| U44C G65C | 0.452 |
| U44G | 0.985 |

| Variant | self-cleavage |
| --- | --- |
| U44A | 0.983 |
| U44C | 0.957 |
| A42U U53G | 1 |
| A42U U53A | 1.02 |
| U44A A52U | 0.969 |
| U43A U62G | 0.641 |
| U43A U62A | 0.587 |
| A42U U69A | 1 |
| A42U U69C | 1.04 |
| U44G G56U | 0.666 |
| U44C A59U | 0.657 |
| U44C A59G | 0.958 |
| U44C A59C | 0.577 |
| U44C G56U | 0.388 |
| U44C G56C | 0.351 |
| U43G U62G | 0.468 |
| U44A U69C | 1.05 |
| U44A U69G | 1.02 |
| U44A U69A | 0.956 |
| U43C C63G | 0.648 |
| U43C C63A | 0.619 |
| U43G G58U | 0.946 |
| U43G G58C | 0.959 |

Reference: the RNAGym collection of RNA variant scans (doi:10.7554/elife.80360)
